Laboratory results reported in patent publication US20150266969A1.

Target: E200 peptide
Test: Biacore, PEP2-Fc on E200

Binder | Kd
PEP2-42 Fc (Fc fusion, not shown: a dimerising Fc or GST) EVQLLESGGGLVQPGGSLRLSCAASGFTFDNVEMSWVRQAPGKGLEWVSSIGSKGEDTYYADSVKGRFTISRDNSKNTLYLQMNSLRAEDTAVYYCAQTVNVPEPAFAYWGQGTLVTVSS | 5.5 nM
PEP2-42-1 Fc (Fc fusion, not shown: a dimerising Fc or GST) EVQMLESGGGLVQPGGSLRLSCAASGFTFDNVEMSWVRQAPGKGLEWVSSIGTKGEYTYYADSVKGRFTISRDNSKNTLYLQMNSMRAEDTAVYYCAQTVNVPEPAFAYWGQGTLVTVLS | 0.12 nM
PEP2-2-2 Fc (Fc fusion, not shown: a dimerising Fc or GST) EVQLLESGGGLVQPGGSLRLSCAASGFTFRNHDMGWVRQAPGKGLEWVSAISGSGGSTYYADSVKGRFTISRDNSKNTLYLQMNSLRAEDTAVYYCAEPKPMDTEFDYRSQGTLVTVSS | 0.1 nM
PEP2-247-1 Fc (Fc fusion, not shown: a dimerising Fc or GST) EVQLLESGGGLVQPGGSLRLSCAASGFTFRNHDMGWVRQAPGKGLEWVSAISGSGGGTYYADSVKGRFTISRDNSKNTLYLQMNSLRAEDTAVYYCAEPSHFDRPFDYRSQGTLVTVSS | 0.19 nM
PEP2-47-1 Fc (Fc fusion, not shown: a dimerising Fc or GST) EVQLLESGGGLVQPGGSLRLSCAASGYTFPMKDMGWVRQAPGKGLEWVSAISGSGGGTYYADSVKGRFTISRDNSKNTLYLQMNSLRAEDTAVYYCAEPSHFDRPFDYRSQGTLVTVSS | 0.11 nM
PEP2-472-1 Fc (Fc fusion, not shown: a dimerising Fc or GST) EVQLLESGGGLVQPGGSLRLSCAASGYTFPMKDMGWVRQAPGKGLEWVSAISGSGGGTYYADSVKGRFTISRDNSKNTLYLQMNSLRAEDTAVYYCAEPKPMDTEFDYRSQGTLVTVSS | 0.09 nM
PEP2-47 Fc (Fc fusion, not shown: a dimerising Fc or GST) EVQLLESGGGLVQPGGSLRLSCAASGFTFPMKDMGWVRQAPGKGLEWVSAISGSGGSTYYADSVKGRFTISRDNSKNTLYLQMNSLRAEDTAVYYCAEPSHFDRPFDYWGQGTLVTVSS | 7.5 nM
PEP2-2-1-1 Fc (Fc fusion, not shown: a dimerising Fc or GST) EVQLLESGGGLVQPGGSLRLSCAASGFTFRNHDMGWVRQAPGKGLEWVSAISGSGGSTYYADSVKGRFTISRDNSKNTLYLQMNSLRAEDTAVYYCAEPKPMDTEFDYRSPGTLVTVSS | 0.09 nM
PEP2-247-2 Fc (Fc fusion, not shown: a dimerising Fc or GST) EVQLLESGGGLVQPGGSLRLSCAASGFTFRNHDMGWVRQAPGKGLEWVSAISGSGGSTYYANSVKGRFTISRDNSKNTLYLQMNSLRAEDTAVYYCAEPSHFDRPFDYRSQGTLVTVSS | 0.45 nM

Target: PEP2-4 dAb
Test: immunohistochemistry on cervical cancer sections, 20 nM PEP2-4 with added free peptide; estimate between no inhibition at 10 uM and clear inhibition at 100 uM

Sequence of PEP2-4 dAb (chain, as listed by the source): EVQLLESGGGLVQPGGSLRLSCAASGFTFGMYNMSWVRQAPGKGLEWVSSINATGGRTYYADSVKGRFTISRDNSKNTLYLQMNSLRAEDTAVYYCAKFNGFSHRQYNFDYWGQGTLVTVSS

Binder | IC50
GHNYTTRNILPGLNITC (modifications not checked) [E200 peptide] | 40 to 50 µM
